Values belong to the molecule of their own block, whether it stands above or below them.
Columns and labels:
Assay in all cases: SEC
[1] = biological target: mtGGGPS_W141A (Methanothermobacter thermautotrophicus)
[2] = biological target: mtGGGPS_W141H (Methanothermobacter thermautotrophicus)
[3] = biological target: GGGPS of Nitrososphaera viennensis (nvGGGPS) (Nitrososphaera viennensis)
SEC = biological target: the molecule itself

Molecule: mtGGGPS_W141A (enzyme)
stoichiometry N [1]: 2

B1: wild-type Methanothermobacter thermautotrophicus GGGPS (mtGGGPS) (enzyme)
chain: MKVEDYFHDILRERKIHLTLIDPEEQTPEEAVEIARAAIRGGTDGIMLGGSTTDSSELDNTARALRENIDVPIILFPGNTTGVSRYADAIFFMSLLNSTNPYWIIGAQALGAATVKKMGIEALPMGYLVVEPGGTVGWVGDTKPVPRNKPDIAAAYAMAAEFLGMRLFYLEAGSGAPEHVPEEMIALVKRCTDQILIVGGGIRSGEDAARVAGAGADVVVTGTVVENSDNVEDKIREIVEGMGSV
stoichiometry N (SEC): 6

Results, then the molecule that gave them:

stoichiometry N [2]: 6
Molecule: mtGGGPS_W141H (enzyme)

stoichiometry N [3]: 6
Molecule: GGGPS of Nitrososphaera viennensis (nvGGGPS) (enzyme)

Source: article PMC7888582 (Protein Science : A Publication of the Protein Society, 2021)
